Target: Ubiquitin-B+1 (UBB+1), untagged, expressed in HEK293FT cells
Experiment: co-IP with anti-UBB+1 antibody from HEK293FT cells, immunoblot; MS/MS of co-purified proteins

B1: UCH-L1 (Ubiquitin C-terminal hydrolase L1), endogenous in HEK293FT cells (enzyme, UniProt P09936 1-220, looked up)
chain: MQLKPMEINPEMLNKVLSRLGVAGQWRFVDVLGLEEESLGSVPAPACALLLLFPLTAQHENFRKKQIEELKGQEVSPKVYFMKQTIGNSCGTIGLIHAVANNQDKLGFEDGSVLKQFLSETEKMSPEDRAKCFEKNEAIQAAHDAVAQEGQCRVDDKVNFHFILFNNVDGHLYELDGRMPFPVNHGASSEDTLLKDAAKVCREFTEREQGEVRFSAVALC
notes: Endogenous protein in the lysate of HEK293FT (human) cells; also called UCL-H1; endogenous UCH-L1
Question: Does B1 bind?
Answer: Result: binds

Reference: patent publication US20220365073A1 (TECHNION RESEARCH AND DEVELOPMENT FOUNDATION, published 2022)
